Results published in patent US20200024330A1.

Key:
Assay in all cases: cell-based or functional assay
[1] = target: HIV-1 Env of isolate MGRM-D-008 (clade D) (HIV-1)
[2] = target: HIV-1 Env of isolate MGRM-D-016 (clade D) (HIV-1)
[3] = target: HIV-1 Env of isolate MGRM-G-028 (clade G pseudovirus) (HIV-1)
[4] = target: HIV-1 Env of isolate MGRM-G-015 (clade G pseudovirus) (HIV-1)
[5] = target: HIV-1 MGRM-A-010 envelope glycoprotein (Env) (HIV-1)
[6] = target: HIV-1 98IN022 envelope glycoprotein (Env) on pseudovirus (HIV-1)
[7] = target: HIV-1 Env of pseudovirus MGRM-Chronic-B-002, clade B (HIV-1)
[8] = target: HIV-1 Env of isolate MGRM-G-019 (clade G pseudovirus) (HIV-1)
[9] = target: HIV-1 JR-CSF envelope protein (Env) on pseudovirus (HIV-1) (UniProt P20871)
[10] = target: HIV-1 MGRM-C-010 Env (HIV-1)
[11] = target: HIV-1 Env of pseudovirus 93TH305, clade B (HIV-1)
[12] = target: HIV-1 MGRM-F1-015 Env (pseudovirus) (HIV-1)
[13] = target: HIV-1 Env of pseudovirus APV_13, clade B (HIV-1)

Sequence of 1443_C16 (PG16) (TCN-116) (antibody) (VH): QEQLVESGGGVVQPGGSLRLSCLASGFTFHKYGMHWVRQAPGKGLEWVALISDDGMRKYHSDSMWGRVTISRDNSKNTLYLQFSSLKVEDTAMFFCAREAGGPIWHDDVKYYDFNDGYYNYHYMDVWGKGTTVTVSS
Sequence of 1443_C16 (PG16) (TCN-116) (antibody) (VL): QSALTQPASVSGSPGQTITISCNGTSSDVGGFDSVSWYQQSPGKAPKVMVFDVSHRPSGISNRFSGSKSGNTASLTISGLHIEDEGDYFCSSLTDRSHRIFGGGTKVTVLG

Row | Substance | IC50 (µg/ml), pseudovirus neutralization [1] | IC50 (µg/ml), pseudovirus neutralization [2] | IC50 (µg/ml), pseudovirus neutralization [3] | IC50 (µg/ml), pseudovirus neutralization [4] | IC50 (µg/ml), pseudovirus neutralization [5] | IC50 (µg/ml), pseudovirus neutralization [6] | IC50 (µg/ml), pseudovirus neutralization [7] | IC50 (µg/ml), pseudovirus neutralization [8] | neutralization IC50 [9] | IC50 [10] | IC50 (µg/ml), pseudovirus neutralization [11] | IC50 (µg/ml), pseudovirus neutralization [12] | IC50 (µg/ml), pseudovirus neutralization [13]
1 | 4E10 (antibody) | 42.9 µg/mL | 15.4 µg/mL | 6.32 µg/mL | 1.07 µg/mL | 14.4 µg/mL | 0.53 µg/mL | 2.19 µg/mL | 6.53 µg/mL | 6 µg/mL | 11 µg/mL | 12.3 µg/mL | 0.53 µg/mL | 7.33 µg/mL
2 | 1443_C16 (PG16) (TCN-116) (antibody) | > 50 µg/mL | 0.02 µg/mL | 3.09 µg/mL | 5.33 µg/mL | 0.004 µg/mL | 0.003 µg/mL | 3.06 µg/mL | 1.21 µg/mL | < 0.0025 µg/mL | > 50 µg/mL | 19.3 µg/mL | > 50 µg/mL | > 50 µg/mL
3 | 1495_C14 (PGC14) (antibody) | > 50 µg/mL | > 50 µg/mL | > 50 µg/mL | > 50 µg/mL | > 50 µg/mL | 9 µg/mL | > 50 µg/mL | > 50 µg/mL | > 50 µg/mL | > 50 µg/mL | 6 µg/mL | > 50 µg/mL | > 50 µg/mL
4 | b12 (antibody) | > 50 µg/mL | 1.12 µg/mL | > 50 µg/mL | > 50 µg/mL | > 50 µg/mL | 0.42 µg/mL | 0.86 µg/mL | 3.77 µg/mL | 0.16 µg/mL | > 50 µg/mL | 4.17 µg/mL | > 50 µg/mL | > 50 µg/mL
